Measured values reported in US11814435B2, “Therapeutic antibodies and their uses” (PFIZER INC., priority 2015, dated 2023).

Legend:
hCD3 (human CD3) = hCD3 (human CD3) (Homo sapiens, UniProt P07766); test: Kinetics and affinity of hCD3/human IgG interactions by SPR (Bio-Rad Proteon XPR36); format: binding; conditions: 37° C.
Method: All experiments were performed on a Bio-Rad Proteon XPR36 surface Plasmon resonance biosensor (Bio-Rad, Hercules, Calif.). An array of anti-CD3 antibodies was prepared using an amine-coupling method on a Bio-Rad GLC Sensor Chip similar to that described in Abdiche, et al., Anal. Biochem. 411, 139-151 (2011). The analysis temperature for the immobilization was 25° C. and the running buffer was HBS-T+(10 mM HEPES, 150 mM NaCl, 0.05% Tween-20, pH 7.4). Channels were activated in the analyte (horizontal) direction by injecting a mixture of 1 mM ECD and 0.25 mM NHS for 3 minutes at a flow rate of 30 μL/min. IgGs were immobilized on the activated spots by injecting them in the ligand (vertical) direction at 20 μg/mL in 10 mM Acetate pH 4.5 buffer for 1.5 minutes at […]. The activated surfaces were blocked by injecting 1M ethanolamine, pH 8.5 in the analyte direction for 3 minutes at 30 μL/min.
The analysis temperature for the hCD3 binding analysis was 37° C. or 25° C. in a running buffer of HBS-T+, supplemented with 1 mg/mL BSA. A kinetic titration method was employed for the interaction analysis as described in Abdiche, et al. The hCD3 (human CD3) analyte was injected in the analyte direction using a series of injections from low to high concentration. The concentrations used were 0.08 nM, 0.4 nM, 2 nM, 10 nM and 50 nM (a 5-membered series, with a 5-fold dilution factor and top concentration of 50 nM). The association time for a given analyte dilution was two minutes. Immediately after the 50 nM hCD3 injection, dissociation was monitored for 2 hours. Prior to the hCD3 analyte injections, buffer was injected 5 times using the same association and dissociation times at the hCD3 analyte cycles to prepare a buffer blank sensorgram for double-referencing purposes (double referencing as described in Myszka, J. Mol. Recognit. 12, 279-284 (1999).
The sensorgrams were double-referenced and fit to a 1:1 Langmuir with mass transport kinetic titration model in BIAevaluation Software version 4.1.1 (GE Lifesciences, Piscataway, N.J.).

CD3 = CD3 (Homo sapiens, UniProt P07766); test: Biacore kinetics of anti-CD3 hIgG2dA bispecifics at 37° C.; format: binding
CD3, sequence (P07766 23-126 limits assumed): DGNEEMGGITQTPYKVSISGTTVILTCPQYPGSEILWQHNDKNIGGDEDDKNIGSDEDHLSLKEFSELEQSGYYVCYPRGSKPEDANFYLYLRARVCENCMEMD
CD3, sequence (P04234 22-105 partner limits assumed): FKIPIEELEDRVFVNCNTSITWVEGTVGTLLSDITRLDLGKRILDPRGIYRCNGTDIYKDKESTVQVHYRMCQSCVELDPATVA

hCD3 (human CD3), sequence (P07766 23-126 limits assumed): as the sequence (P07766 23-126 limits assumed) above
hCD3 (human CD3), sequence (P04234 22-105 partner limits assumed): as the sequence (P04234 22-105 partner limits assumed) above

Molecule	ka huCD3ed @37° C. (hCD3 (human CD3)) [M⁻¹ s⁻¹]	kd huCD3ed @37° C. (hCD3 (human CD3)) [s⁻¹]	Kd (CD3) [nM]	ka (CD3) [M⁻¹ s⁻¹]	kd (CD3) [s⁻¹]
h2B4-VH-wt VL_TK: anti-CD3 antibody (antibody, V domains shown) VH: EVQLVESGGGLVQPGGSLRLSCAASGFTFSDYYMTWVRQAPGKGLEWVAFIRNRARGYTSDHNASVKGRFTISRDNAKNSLYLQMNSLRAEDTAVYYCARDRPSYYVLDYWGQGTTVTVSS VL: DIVMTQSPDSLAVSLGERATINCKSSQSLFNVRSRKNYLAWYQQKPGQPPKLLISWASTRESGVPDRFSGSGSGTDFTLTISSLQAEDVAVYYCKQSYDLFTFGSGTKLEIK	380000	0.014			
h2B4-VH-yads VL_TK: anti-CD3 antibody (antibody, V domains shown) VH: EVQLVESGGGLVQPGGSLRLSCAASGFTFSDYYMTWVRQAPGKGLEWVAFIRNRARGYTSDYADSVKGRFTISRDNAKNSLYLQMNSLRAEDTAVYYCARDRPSYYVLDYWGQGTTVTVSS VL: DIVMTQSPDSLAVSLGERATINCKSSQSLFNVRSRKNYLAWYQQKPGQPPKLLISWASTRESGVPDRFSGSGSGTDFTLTISSLQAEDVAVYYCKQSYDLFTFGSGTKLEIK	240000	0.021			
h2B4-VH-hnps VL_TK: anti-CD3 antibody (antibody, V domains shown) VH: EVQLVESGGGLVQPGGSLRLSCAASGFTFSDYYMTWVRQAPGKGLEWVAFIRNRARGYTSDHNPSVKGRFTISRDNAKNSLYLQMNSLRAEDTAVYYCARDRPSYYVLDYWGQGTTVTVSS VL: DIVMTQSPDSLAVSLGERATINCKSSQSLFNVRSRKNYLAWYQQKPGQPPKLLISWASTRESGVPDRFSGSGSGTDFTLTISSLQAEDVAVYYCKQSYDLFTFGSGTKLEIK	390000	0.016			
h2B4-VH-yaes VL_TK: anti-CD3 antibody (antibody, V domains shown) VH: EVQLVESGGGLVQPGGSLRLSCAASGFTFSDYYMTWVRQAPGKGLEWVAFIRNRARGYTSDYAESVKGRFTISRDNAKNSLYLQMNSLRAEDTAVYYCARDRPSYYVLDYWGQGTTVTVSS VL: DIVMTQSPDSLAVSLGERATINCKSSQSLFNVRSRKNYLAWYQQKPGQPPKLLISWASTRESGVPDRFSGSGSGTDFTLTISSLQAEDVAVYYCKQSYDLFTFGSGTKLEIK	230000	0.023			
h25A8-B12_Ep: anti-EpCam/CD3 bispecific, human IgG2dA, anti-CD3 arm h25A8-B12 (antibody, V domains shown, left off: another chain or arm of the molecule; a dimerising Fc or GST; small tags and cut ends, anti-EpCam/CD3 bispecific, human IgG2dA, anti-CD3 arm h25A8-B12) VH: EVQLVESGGGLVKPGGSLRLSCAASGFTFSTYAMNWVRQAPGKGLEWVGRIRSKINNYATYYAESVKGRFTISRDDSKNTLYLQMNSLKTEDTAVYYCVRHETLRSGISWFASWGQGTLVTVSS VL: QAVVTQEPSLTVSPGGTVTLTCRASTGAVTTSNYANWVQQKPGQAPRGLIGGTNTRAPGTPARFSGSLLGGKAALTLSGAQPEDEAEYYCVLWYNNHWVFGGGTKLTVL			21	1.15e+06	0.0241
h25A8-B13_Ep: anti-EpCam/CD3 bispecific, human IgG2dA, anti-CD3 arm h25A8-B13 (antibody, V domains shown, left off: another chain or arm of the molecule; a dimerising Fc or GST; small tags and cut ends, anti-EpCam/CD3 bispecific, human IgG2dA, anti-CD3 arm h25A8-B13) VH: EVQLVESGGGLVKPGGSLRLSCAASGFTFSTYAMNWVRQAPGKGLEWVGRIRSKINNYATYYAESVKGRFTISRDDSKNTLYLQMNSLKTEDTAVYYCVRHETLRSGISWFASWGQGTLVTVSS VL: QAVVTQEPSLTVSPGGTVTLTCRTSTGAVTTSNYANWVQQKPGQAPRGLIGGTNTRAPGTPARFSGSLLGGKAALTLSGAQPEDEAEYYCVLWYNNHWVFGGGTKLTVL			18.3	1.2e+06	0.0219
